Measurements: patent publication US20050106660A1 (Pieris, published 2005)

Tests used:
hemoglobin (Sigma) [1] = target: T1, hemoglobin (Sigma); experiment: SPR (BIAcore X), hemoglobin immobilized on CM5 chip, steady-state values fitted
T1 construct: Immobilized by amine coupling on a CM5 chip (ca. 5000 RU)
Experimental: (§1) The binding affinity of the anticalin HbgA to hemoglobin was determined by surface plasmon resonance (SPR) using the BIAcore X system (BIACORE). Hemoglobin (100 μg/ml, dissolved in 10 mM maleate, pH 6.0) was immobilized at an amount of ca. 5000 resonance units (RU) to the surface of one flow channel on a CM5 sensor chip (BIACORE) using the amine coupling kit (BIACORE) according to the manufacturer's instructions. Unreacted groups on the biosensor chip surface were blocked with 1 M ethanolamine hydrochloride-NaOH pH 8.5. […] The concentration of HbgA and also of ApoD were determined by absorption at 280 nm using a calculated extinction coefficient of 54600 M⁻¹ cm⁻¹ and 34150 M⁻¹ cm⁻¹, respectively (Gill and von Hippel, Anal. Biochem. 182 (1989), 319-326). […] The binding of HbgA to hemoglobin, immobilized on the sensor chip, was measured by applying each 75 μl of these protein solutions. Steady state resonance values were detected for the channel with the immobilized hemoglobin for each concentration applied. For each measurement the resonance value that was due to buffer effects and simultaneously measured for the second channel of the sensor chip, was subtracted, and the resulting difference value was plotted against the applied concentration. […]

hemoglobin (Sigma) [2] = target: T1, hemoglobin (Sigma); experiment: not stated there (affinity measured by SPR in Example 5)
Experimental: as §1

[3] = target: T2, bovine serum albumin (BSA, Sigma) (bovine, UniProt P02769 25-607); experiment: SPR (BIAcore X), BSA immobilized on CM5 chip, steady state
T2 construct: Immobilized by amine coupling on a CM5 chip (ca. 5000 RU)
T2 sequence (P02769 25-607 limits assumed): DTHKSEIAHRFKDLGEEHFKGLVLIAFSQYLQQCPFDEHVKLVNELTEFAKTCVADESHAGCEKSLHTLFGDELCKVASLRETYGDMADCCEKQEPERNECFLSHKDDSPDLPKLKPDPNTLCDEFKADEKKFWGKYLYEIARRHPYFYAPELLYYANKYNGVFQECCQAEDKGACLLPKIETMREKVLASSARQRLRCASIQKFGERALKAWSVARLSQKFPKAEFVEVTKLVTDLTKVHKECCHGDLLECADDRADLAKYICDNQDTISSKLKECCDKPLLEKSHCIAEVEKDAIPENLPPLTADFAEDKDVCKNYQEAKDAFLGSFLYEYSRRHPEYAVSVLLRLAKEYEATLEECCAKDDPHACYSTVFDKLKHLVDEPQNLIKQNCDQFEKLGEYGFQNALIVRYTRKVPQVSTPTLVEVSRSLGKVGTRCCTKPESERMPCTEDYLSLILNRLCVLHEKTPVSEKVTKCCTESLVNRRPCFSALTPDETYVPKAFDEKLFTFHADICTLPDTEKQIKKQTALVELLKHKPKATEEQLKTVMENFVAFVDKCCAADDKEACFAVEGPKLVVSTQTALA

Kd (hemoglobin (Sigma) [1]): 2200 nM | Ka (hemoglobin (Sigma) [2]): > 1e+06 M⁻¹ | binding result [3]: no binding
B1: anticalin HbgA (mutein of human apolipoprotein D), purified, with C-terminal Strep-Tag II (designed binder)
chain: QAFHLGKCPNPPVQENFDVNKYPGRWYEIEKIPQFVWMGRCIQANYSLMENGKIKVLNQFLRITLDVWQIEGEATPVNLTEPAKLEVKEGLGDPSAPYWILATDYENYALVYSCESFLWLFHWDFAWILARNVALPPETVDSLKNILTSNNIDVKKMTVTDQVNCPKLS
notes: The amber codon at position 34 was replaced by a Gln codon; Scaffold carries Leu23Pro, Cys116Ser, Pro133Val, Asn134Ala; also called mutein HbgA; not shown: Strep-Tag II fused to the C-terminus (expression from pApoD10)
